Measurements from patent US12202907B2, “Nucleic acids encoding and methods of producing proteins comprising antibody chains” (Innate Pharma, priority 2018, dated 2025).

Experiments:
[1] = tested on: CHO cells expressing cynomolgus (Macaca fascicularis) CD39; assay: Antibody titration on CHO-cyCD39 by flow cytometry; type: binding; settings: qualitative
Protocol: Antibody I-394 was tested in two repeated experiments for binding to CHO cells expressing human CD39, CHO cells expressing cynomolgus (Macaca fascicularis) CD39, CHO cells expressing murine CD39, and human Ramos lymphoma cells (ATCC™, reference CRL-1596). Cells were incubated with various concentration of unlabeled anti-CD39 antibody from 30 μg/ml to 5×10^−4 μg/ml, for 30 minutes at 4° C. After washes, cells were incubated with Goat anti-mouse H+L labeled secondary antibody for 30 min at 4° C.

[2] = target: T1, CD39 mutants transfected in Hek-293T cells (Homo sapiens, UniProt P49961, E142K/M139A/R138A); assay: Epitope mapping: binding to CD39 mutants by flow cytometry; settings: mutant 19: R138A, M139A, E142K
T1 construct: expressed in transfected cells; host or cells: HEK293T
T1 sequence (P49961 1-510 R138A/M139A/E142K): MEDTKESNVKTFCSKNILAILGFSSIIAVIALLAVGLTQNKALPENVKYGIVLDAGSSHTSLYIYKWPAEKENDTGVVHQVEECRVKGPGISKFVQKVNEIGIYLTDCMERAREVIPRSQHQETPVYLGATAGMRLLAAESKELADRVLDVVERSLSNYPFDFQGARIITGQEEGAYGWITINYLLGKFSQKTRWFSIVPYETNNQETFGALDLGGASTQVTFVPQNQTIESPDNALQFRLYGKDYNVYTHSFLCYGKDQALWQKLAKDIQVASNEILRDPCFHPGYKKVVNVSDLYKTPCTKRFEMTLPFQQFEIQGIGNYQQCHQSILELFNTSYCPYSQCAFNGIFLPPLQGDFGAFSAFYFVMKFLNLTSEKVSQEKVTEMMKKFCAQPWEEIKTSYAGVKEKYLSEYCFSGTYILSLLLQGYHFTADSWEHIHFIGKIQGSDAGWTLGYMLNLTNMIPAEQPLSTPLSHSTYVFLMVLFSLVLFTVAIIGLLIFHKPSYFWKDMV
Protocol: CD39 mutants were generated by PCR. The sequences amplified were run on agarose gel and purified using the Macherey Nagel PCR Clean-Up Gel Extraction kit (reference 740609). The purified PCR products generated for each mutant were then ligated into an expression vector, with the ClonTech InFusion system. The vectors containing the mutated sequences were prepared as Miniprep and sequenced. After sequencing, the vectors containing the mutated sequences were prepared as Midiprep using the Promega PureYield™ Plasmid Midiprep System. HEK293T cells were grown in DMEM medium (Invitrogen), transfected with vectors using Invitrogen's Lipofectamine 2000 and incubated at 37° C. in a CO2 incubator for 48 hours prior to testing for transgene expression. The targeted amino acid mutations in the table 1 below are shown using numbering of SEQ ID NO: 1.
In order to define the epitopes of anti-CD39 antibodies, we designed CD39 mutants defined by substitutions of amino acids exposed at the molecular surface over the surface of CD39.
Dose-ranges of I-394 (10-2.5-0.625-0.1563-0.0391-0.0098-0.0024-0.0006 μg/ml) are tested on the 20 generated mutants by flow cytometry. […] Mutant 5 contains amino acid substitutions at residues Q96, N99, E143 and R147. […]

[3] = target: T2, Human CD39-L2 (NTPDase6, ENTPD6) (Homo sapiens, UniProt O75354, K202E); assay: ELISA titration on CD39-L2; type: binding
T2 sequence (O75354 1-484 K202E): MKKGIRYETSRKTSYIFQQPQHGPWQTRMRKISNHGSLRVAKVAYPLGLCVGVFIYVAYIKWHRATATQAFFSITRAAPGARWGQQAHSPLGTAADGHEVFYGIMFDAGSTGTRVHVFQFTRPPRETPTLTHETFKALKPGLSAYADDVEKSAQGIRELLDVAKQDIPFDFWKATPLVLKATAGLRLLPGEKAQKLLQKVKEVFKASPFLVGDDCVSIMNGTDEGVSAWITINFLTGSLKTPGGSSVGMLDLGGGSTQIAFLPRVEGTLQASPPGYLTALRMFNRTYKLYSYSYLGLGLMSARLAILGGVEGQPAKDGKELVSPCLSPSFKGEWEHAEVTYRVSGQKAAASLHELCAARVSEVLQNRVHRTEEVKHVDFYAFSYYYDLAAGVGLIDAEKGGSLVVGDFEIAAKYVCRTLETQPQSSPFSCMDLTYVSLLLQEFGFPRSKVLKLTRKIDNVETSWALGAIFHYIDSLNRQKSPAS
Protocol: (§1) Antibody I-394 was tested for binding to recombinant human CD39 isoforms (Rec-huCD39 isoforms) having amino acid sequences shown below were coated in 96-well plate in PBS 1X at 500 ng/ml or 1 μg/ml at 4° C. overnight. Wells were washed in TBS Tween® 20 (polysorbate 20), and further saturated 2H at RT in TBS Blocking buffer. Dose range concentration of primary antibody was incubated in TBS blocking buffer for 2 h at RT. Wells were washed in TBS Tween® 20 (polysorbate 20). […] Optical density was measured on Enspire™ at OD=450.

[4] = target: T3, Human CD39-L3 (NTPDase3, ENTPD3) (Homo sapiens, UniProt O75355); assay: ELISA titration on CD39-L3; type: binding
T3 sequence (O75355 1-529): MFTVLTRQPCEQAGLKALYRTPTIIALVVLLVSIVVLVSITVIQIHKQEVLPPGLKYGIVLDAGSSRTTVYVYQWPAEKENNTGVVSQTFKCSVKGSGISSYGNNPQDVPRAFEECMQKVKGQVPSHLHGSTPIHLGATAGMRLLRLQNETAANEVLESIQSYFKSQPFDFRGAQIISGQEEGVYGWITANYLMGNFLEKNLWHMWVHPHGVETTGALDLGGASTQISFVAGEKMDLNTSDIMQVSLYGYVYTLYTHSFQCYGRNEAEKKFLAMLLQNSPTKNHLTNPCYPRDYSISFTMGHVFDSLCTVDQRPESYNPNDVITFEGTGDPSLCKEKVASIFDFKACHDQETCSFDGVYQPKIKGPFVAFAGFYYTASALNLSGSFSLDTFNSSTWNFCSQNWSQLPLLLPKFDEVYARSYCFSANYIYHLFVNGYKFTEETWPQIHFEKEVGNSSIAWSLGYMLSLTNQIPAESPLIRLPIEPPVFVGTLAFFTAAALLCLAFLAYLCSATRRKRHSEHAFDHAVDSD
Protocol: as §1

## I-394: anti-CD39 antibody, VH SEQ ID NO: 6, VL SEQ ID NO: 7, human IgG1 Fc with L234A/L235E/G237A/A330S/P331S
[1]
  binding to cells expressing cynomolgus CD39 (CHO-cyCD39): bound
[2]
  binding to cells expressing mutant 19 of CD39: complete loss of binding
[3]
  binding to CD39-L2 in ELISA: not to any of the isoforms CD39-L1, -L2, -L3 or -L4
[4]
  binding to CD39-L3 in ELISA: not to any of the isoforms CD39-L1, -L2, -L3 or -L4
